Reference: patent US20200207841A1 (MIT, published 2020)
Residue numbers refer to the chain shown, from its start. In names and notes the source's numbering stands. Like-named read-outs stand apart in the source and are kept apart here.

What was measured:
[1] = molecular target: T1, EDIII-DV2 (Dengue virus serotype 2 (DV2), UniProt P14337 581-673)
T1 construct: also called EDIII of DV2; EDIII-DVII

[2] = molecular target: T2, EDIII-DV1 (Dengue virus serotype 1 (DV1), UniProt P17763 581-673)
T2 construct: also called EDIII of DV1; EDIII-DVI

[3] = molecular target: T3, EDIII-DV3 (Dengue virus serotype 3 (DV3), UniProt Q6YMS3 579-671)
T3 construct: also called EDIII of DV3; EDIII-DVIII

[4] = molecular target: T4, EDIII-DV4 (Dengue virus serotype 4 (DV4), UniProt P09866 580-672)
T4 construct: also called EDIII of DV4; DV4 EDIII

[5] = molecular target: T3, EDIII-DV3; assay: competition ELISA; affinity relative to 4E5A
[6] = molecular target: T2, EDIII-DV1; assay: competition ELISA; affinity relative to 4E5A
[7] = molecular target: T4, EDIII-DV4; assay: competition ELISA; affinity relative to 4E5A
[8] = molecular target: T3, EDIII-DV3; remark: listed apart in the source
[9] = molecular target: T1, EDIII-DV2; remark: listed apart in the source
[10] = molecular target: T2, EDIII-DV1; remark: listed apart in the source
[11] = molecular target: T4, EDIII-DV4; remark: listed apart in the source
[12] = molecular target: DV3 (Dengue virus serotype 3, virus used in FRNT) (Dengue virus serotype 3 (DV3)); assay: cell-based or functional assay
[13] = molecular target: DV4 (Dengue virus serotype 4, virus used in FRNT) (Dengue virus serotype 4 (DV4)); assay: cell-based or functional assay
[14] = molecular target: DV1 (Dengue virus serotype 1, virus used in FRNT) (Dengue virus serotype 1 (DV1)); assay: cell-based or functional assay
[15] = molecular target: DV2 (Dengue virus serotype 2, virus used in FRNT) (Dengue virus serotype 2 (DV2)); assay: cell-based or functional assay
[16] = molecular target: T4, EDIII-DV4; assay: scFv displayed on yeast (YSD), soluble tagged EDIII-DV4 titrated, read by FACS
[17] = molecular target: T4, EDIII-DV4; assay: competition ELISA
[18] = molecular target: T4, EDIII-DV4; assay: calculated from KD, relative to 4E11 WT
[19] = molecular target: T4, EDIII-DV4; assay: calculated from KD, ΔG = RTln(KD) at 25° C.
[20] = molecular target: T4, EDIII-DV4; remark: listed apart in the source

B1: VH_A25_del (antibody, V domains shown)
VH: VKLLEQSGAELVKPGASVRLSCTSGFNIKDTYMSWVKQRPEQGLEWIGRIDPENGDTKYDPKFQGKATITADTSSNTAYLHLSSLTSGDTAVYYCSRGWEGFAYWGQGTLVTVSA
VL: ELVMTQTPASLAVSLGQRATISCRASENVDKYGNSFMHWYQQKAGQPPKLLIYRASELQWGIPARFSGSGSRTDFTLTINPVEADDVATYFCQRSNEVPWTFGGGTKLEIK
notes: also called 4E5-del-25; copies: 2 + 2
For B1, the koff [1] was 0.000182 s⁻¹, the kon [1] was 2.74e+06 M⁻¹ s⁻¹ and the Kd [2] was 1.43 nM. It also gave a koff [2] of 0.00133 s⁻¹, a kon [2] of 933000 M⁻¹ s⁻¹ and a Kd [3] of 5.4 nM. It also gave a koff [3] of 0.0269 s⁻¹, a kon [3] of 4.98e+06 M⁻¹ s⁻¹ and a Kd [4] of 25.9 nM. For the same binder, the koff [4] was 0.13 s⁻¹, the kon [4] was 4.99e+06 M⁻¹ s⁻¹ and the “REL AFFINITY” value [5] was 1.22. The “REL AFFINITY” value [6] was 0.29, the “REL AFFINITY” value [7] was 0.54 and the Kd [8] was 19.8 nM. It also gave a Kd [9] of less than 0.3 nM, a Kd [10] of 1.27 nM and a Kd [11] of 236 nM.

B2: 4E5A (antibody, V domains shown)
VH: VKLLEQSGAELVKPGASVRLSCTASGFNIKDTYMSWVKQRPEQGLEWIGRIDPENGDTKYDPKFQGKATITADTSSNTAYLHLSSLTSGDTAVYYCSRGWEGFAYWGQGTLVTVSA
VL: ELVMTQTPASLAVSLGQRATISCRASENVDKYGNSFMHWYQQKAGQPPKLLIYRASELQWGIPARFSGSGSRTDFTLTINPVEADDVATYFCQRSNEVPWTFGGGTKLEIKR
notes: also called 4E11-5A; E45A
In the case of B2, the Kd [1] is reported as 0.129 nM, the Kd [2] is reported as 0.217 nM and the Kd [3] is reported as 2.72 nM. For the same binder, the “FRNT50 (focus reduction neutralization test)” value [12] was 0.77 µg/mL, the “FRNT50 (focus reduction neutralization test)” value [13] was 4 µg/mL and the “FRNT50 (focus reduction neutralization test)” value [14] was 0.19 µg/mL. For the same binder, the “FRNT50 (focus reduction neutralization test)” value [15] was 0.028 µg/mL, the Kd [8] was 24.2 nM and the Kd [9] was less than 0.3 nM. It also gave a Kd [10] of 0.368 nM.

B3: VH_S26_del (antibody, V domains shown)
VH: B1 VH with S24A
VL: B2 VL
For B3, the Kd [1] was 0.104 nM, the Kd [2] was 0.118 nM and the Kd [3] was 2.6 nM. For the same binder, the “REL AFFINITY” value [5] was 4.42, the “REL AFFINITY” value [6] was greater than 1.23 and the Kd [8] was 5.47 nM. For the same binder, the Kd [9] was less than 0.3 nM and the Kd [10] was less than 0.3 nM.

B4: VH_G27P (antibody, V domains shown)
VH: B2 VH with G26P
VL: B1 VL
notes: also called 4E5-G27P; copies: 2 + 2
B4 gave a Kd [1] of 0.265 nM, a koff [1] of 0.000527 s⁻¹ and a kon [1] of 1.99e+06 M⁻¹ s⁻¹. It also gave a Kd [2] of 2.76 nM, a koff [2] of 0.00841 s⁻¹ and a kon [2] of 3.05e+06 M⁻¹ s⁻¹. For the same binder, the Kd [3] was 4.52 nM, the koff [3] was 0.0133 s⁻¹ and the kon [3] was 2.95e+06 M⁻¹ s⁻¹. For the same binder, the “REL AFFINITY” value [5] was 0.73, the “REL AFFINITY” value [6] was 0.08 and the “REL AFFINITY” value [7] was 0.06. It also gave a Kd [8] of 33.1 nM, a Kd [10] of 4.58 nM and a Kd [11] of 1970 nM.

B5: VH_G27P single chain Fv on yeast (scFv, V domains shown)
VH: B2 VH with G26P
VL: B2 VL
With B5 the Kd [16] was 53300 nM.

B6: VH_G27A single chain Fv on yeast (scFv, V domains shown)
VH: B2 VH with G26A
VL: B2 VL
With B6 the Kd [16] was 185 nM.

B7: 4E11 VH-A55E (antibody, V domains shown)
VH: B2 VH
VL: B2 VL with K31R, E57N, Q59E, W60S
B7 was tested, and the “fold affinity enhancement relative to 4E11 WT” value [17] was 9.2 fold, the “ΔΔG (ΔGmutant - ΔGWT)” value [18] was -1.31 kcal/mol and the ΔG [19] was -7.29 kcal/mol. For the same binder, the Kd [20] was 4.44 µM.

B8: 4E11 VL-E59Q (antibody, V domains shown)
VH: B2 VH with E54A
VL: B2 VL with K31R, E57N, W60S
With B8 the “ΔΔG (ΔGmutant - ΔGWT)” value [18] was -0.77 kcal/mol, the ΔG [19] was -6.76 kcal/mol and the Kd [20] was 11 µM.

B9: VH_Y106R (antibody, V domains shown)
VH: B2 VH with Y105R
VL: B1 VL
notes: copies: 2 + 2
With B9 the “REL AFFINITY” value [5] was 0.72, the “REL AFFINITY” value [6] was greater than 1.23 and the “REL AFFINITY” value [7] was 0.46. The Kd [8] was 33.4 nM, the Kd [10] was less than 0.3 nM and the Kd [11] was 272 nM.

B10: 4E5A single chain Fv on yeast (scFv, V domains shown)
VH: B2 VH
VL: B2 VL
notes: also called 4E5A scFv
For B10, the Kd [16] was 650 nM.

B11: VH_G27A (antibody, V domains shown)
VH: B2 VH with G26A
VL: B2 VL
B11 was tested, and the Kd [1] was 0.202 nM, the kon [1] was 2.08e+06 M⁻¹ s⁻¹ and the Kd [2] was 0.0805 nM. It also gave a koff [2] of 8.38e-05 s⁻¹, a kon [2] of 1.04e+06 M⁻¹ s⁻¹ and a Kd [3] of 3.24 nM. The koff [3] was 7.54 s⁻¹, the Kd [4] was 22.1 nM and the koff [4] was 0.0406 s⁻¹. The kon [4] was 1.83e+06 M⁻¹ s⁻¹, the “REL AFFINITY” value [5] was 1.17 and the “REL AFFINITY” value [6] was greater than 1.23. The “REL AFFINITY” value [7] was 2.92, the Kd [8] was 20.6 nM and the Kd [9] was less than 0.3 nM. It also gave a Kd [10] of less than 0.3 nM and a Kd [11] of 43.2 nM.

B12: 4E11 VL-N57E (antibody, V domains shown)
VH: B2 VH with E54A
VL: B2 VL with K31R, Q59E, W60S
For B12, the “ΔΔG (ΔGmutant - ΔGWT)” value [18] was -0.93 kcal/mol, the ΔG [19] was -6.92 kcal/mol and the Kd [20] was 8.41 µM.

B13: VH_G27_del (antibody, V domains shown)
VH: B1 VH with S24A, G25S
VL: B2 VL
For B13, the Kd [1] was 0.269 nM, the koff [1] was 0.000563 s⁻¹ and the kon [1] was 2.09e+06 M⁻¹ s⁻¹. It also gave a Kd [2] of 0.31 nM, a koff [2] of 0.000471 s⁻¹ and a kon [2] of 1.52e+06 M⁻¹ s⁻¹. It also gave a Kd [3] of 2.39 nM, a koff [3] of 0.0483 s⁻¹ and a kon [3] of 2.02e+07 M⁻¹ s⁻¹. It also gave a Kd [4] of 8.04 nM, a koff [4] of 0.0188 s⁻¹ and a kon [4] of 2.34e+06 M⁻¹ s⁻¹. The “REL AFFINITY” value [5] was 2.67, the “REL AFFINITY” value [6] was greater than 1.23 and the “REL AFFINITY” value [7] was 4.78. The Kd [8] was 9.05 nM, the Kd [9] was less than 0.3 nM and the Kd [10] was less than 0.3 nM. It also gave a Kd [11] of 26.4 nM.
